Residue numbers refer to the chain shown, from its start.
Experiments:
[1] = target: T1, C5aR1 (human neutrophils) (Homo sapiens, UniProt P21730); test: C5a induced chemotaxis (transwell), human neutrophils; format: cell-based; details: 1, 10, or 100 nM antagonist, C5a 10^−6 to 10^−9.5 M
T1 construct: neutrophils isolated from whole blood; host or cells: human neutrophils (cryopreserved, or isolated from whole blood)
T1 sequence (P21730 1-350): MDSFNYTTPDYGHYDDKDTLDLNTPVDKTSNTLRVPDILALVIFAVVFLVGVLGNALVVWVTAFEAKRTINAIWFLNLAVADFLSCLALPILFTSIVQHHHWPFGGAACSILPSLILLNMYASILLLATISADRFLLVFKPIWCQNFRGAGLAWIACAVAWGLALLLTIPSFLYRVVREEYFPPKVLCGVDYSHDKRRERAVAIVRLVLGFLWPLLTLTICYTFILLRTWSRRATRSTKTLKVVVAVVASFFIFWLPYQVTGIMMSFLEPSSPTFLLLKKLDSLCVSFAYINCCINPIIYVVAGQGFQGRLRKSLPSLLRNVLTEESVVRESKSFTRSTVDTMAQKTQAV
Excerpt: One of the primary mechanisms by which neutrophils migrate to the site of inflammation is by chemotaxis induced by a C5a/C5adesArg gradient is detected by C5aR1 signaling. Anti-C5aR1 antibodies were thus assessed in a chemotaxis assay for their ability to block C5a induced migration of neutrophils. The assay involved cell migration in a double chamber well separated by filters. The cells and inhibitors were applied into the upper chamber and the lower chamber was filled with the chemoattractant, causing the cells to migrate to the lower chamber. The inhibition activity was evaluated by counting the migrated cell numbers. Specifically, a titration of C5a was added to the bottom chamber a 96 transwell plate. Cells expressing human C5aR1 (C5aR1-U937 cells or human neutrophils) were incubated with or without antagonist and then seeded into the top chamber of the transwell plate. The cells were incubated for 2 hours. Cells that migrated to the bottom chamber were quantified using the CyQUANT cell proliferation kit following the manufacturer's protocol. […]
Anti-C5aR1 antibodies were assessed in a chemotaxis assay for their ability to block C5a induced migration of neutrophils. […] The inhibition activity was evaluated by counting the migrated cell numbers. […] Cells that migrated to the bottom chamber were quantified using the CyQUANT cell proliferation kit following the manufacturer's protocol. […]

C5aR1 (C5aR1-U937 cells) = target: T2, C5aR1 (C5aR1-U937 cells) (Homo sapiens, UniProt P21730, K279N); test: C5a induced chemotaxis (transwell), C5aR1-U937 cells; format: cell-based; details: for inhibition of cell chemotaxis: C5aR1-U937 cells, 1, 10, or 100 nM antibody, C5a 10^−6 to 10^−9.5 M; for inhibition of chemotaxis as single agents: FIGS. 18A-18C, cells not given
T2 construct: expressed in transfected cells
T2 sequence (P21730 with tags, fused parts or gaps K279N limits assumed): T1 sequence (P21730 1-350) with D2N, K279N
Excerpt: (§1) One of the primary mechanisms by which neutrophils migrate to the site of inflammation is by chemotaxis induced by a C5a/C5adesArg gradient is detected by C5aR1 signaling. Anti-C5aR1 antibodies were thus assessed in a chemotaxis assay for their ability to block C5a induced migration of neutrophils. The assay involved cell migration in a double chamber well separated by filters. The cells and inhibitors were applied into the upper chamber and the lower chamber was filled with the chemoattractant, causing the cells to migrate to the lower chamber. The inhibition activity was evaluated by counting the migrated cell numbers. Specifically, a titration of C5a was added to the bottom chamber a 96 transwell plate. Cells expressing human C5aR1 (C5aR1-U937 cells or human neutrophils) were incubated with or without antagonist and then seeded into the top chamber of the transwell plate. The cells were incubated for 2 hours. Cells that migrated to the bottom chamber were quantified using the CyQUANT cell proliferation kit following the manufacturer's protocol. The assay was performed using engineered cells stably expressing C5aR1 as well as using human neutrophils.
as §1, with “Anti-C5aR1” for “One of the primary mechanisms by which neutrophils migrate to the site of inflammation is by chemotaxis induced by a C5a/C5adesArg gradient is detected by C5aR1 signaling. Anti-C5aR1”, “were” for “were thus”
In a first experiment, C5aR1-U937 cells were seeded into the top chamber of a 96 Transwell plate in the presence of no antibody (antagonist), or of 1, 10, or 100 nM antibody (antagonist).

[2] = target: T3, C5aR1 mutants (N-terminus, ECL1, ECL2, ECL3) (Homo sapiens, UniProt P21730, K279N/Y11F); test: Alanine scanning / mutagenesis epitope mapping of C5aR1; format: binding; details: Y11F
T3 sequence (P21730 with tags, fused parts or gaps Y11F/K279N): T1 sequence (P21730 1-350) with D2N, Y11F, K279N
Excerpt: FIG. 5A is a diagram showing the results of alanine scanning mutations of site I interaction with mab 583. The N-terminal amino acid sequence of C5aR1 is listed across the top of the figure. Glycosylation sites are indicated by rectangle boxes. The only natural glycosylation site is at position N5. The other sites were introduced by mutagenesis. Mutations that abolished clone 583 binding are circled. The sulfated tyrosines at positions 11 and 14 are marked with a star sign. FIG. 5B is a diagram showing results of alanine scanning mutations of site I interaction with mab 66. Mutations that abolished clone 66 binding are circled. The sulfated tyrosines at positions 11 and 14 are marked with a star sign.
Ala substitutions of T8 & D10 moderately reduces its affinity while Y11 & D15 abolishes mAb binding. […] N-glycosylation of at N17 or D17P also abolishes mAb binding. N5 glycan is tolerated but a tandem glycosylation (N5 & N17) is not tolerated. mAb core epitopes are T8-G12 but nature of AA present in D15-D18 influence its binding. […] The core epitope appears to be located near T8-G12, with additional contributions from D15-D18.
Clone 66 was previously characterized as a site I binder and its binding is dependent on tyrosine sulfation at positions 11Y and/or 14Y. […] It should be noted that the only the only non-human species to retain clone 66 binding was baboon, which is the only NHP that retains the DYGHY motif.
However, it was unknown if additional contacts were made with ECL1 or ECL3. […] The data is highlighted in FIG. 5C-5E.
The core epitope of clone 11 is from E180-P183; the core epitope of clone 329 is from E180-P184; and the core epitope of clone 336 is from R178-P183. […] The data for clones 11, 329, and 336 is highlighted in FIG. 5F.

B1: clone 329: anti-C5aR1 Site II antibody; VH SEQ ID NO: 492, VL SEQ ID NO: 552 (antibody, V domains shown)
VH: QVQLQQSGAELTKPGASVKLSCKASGYTFTNYWMHWVKQRPGQGLEWIGYLNPSSGYTKYNQKFKDKATLTADKSSSTAYMQLNSLTYEDSAVYYCTRSGGDNYGNPYYFDRWGQGTTVTVSS
VL: DVVMTQTPLSLTVSLGDQASISCRSSQSLVHSNGNTYLHWYLQKPGQSPKFLIYKVSNRFSGVPDRFSGSGSGTDFRLKISRVEAEDLGVYFCSQSTLVPLTFGAGTKLEIK
For B1, the “inhibition of human neutrophil chemotaxis” value [1] was “strongest effects”, the “inhibition of cell chemotaxis” value (C5aR1 (C5aR1-U937 cells)) was “strongest effects” and the “inhibition of chemotaxis as single agents” value (C5aR1 (C5aR1-U937 cells)) was “inhibited chemotaxis as single agents in a dose-dependent manner”.

B2: clone 66: anti-C5aR1 Site I antibody; VH SEQ ID NO: 483, VL SEQ ID NO: 543 (antibody, V domains shown)
VH: QVQLQQSDAELVKPGASVKISCKASGYTFIDHAIHWVKQRPEQGLEWIGYISPGNGEIKYNEKFKAKATLTADKSSSAAYMQLNSLTSADSAVYFCKRALFYYTGKYQPMDYWGQGTTVTDSS
VL: DIVMTQSQKFMSTTAGDRVSITCKASQNVGSAVVWYQQKPGRSPKLLIYSSSIRYTGVPDRFTGSGSGTDFTLTINSVQSEDLADYFCQQYNSFPLTFGAGTKLEIK
With B2 the “binding to C5aR1 mutant” value [2] was “did not impact binding”.

B3: clone 583: anti-C5aR1 Site I antibody; VH SEQ ID NO: 536, VL SEQ ID NO: 595 (antibody, V domains shown)
VH: EVQLVESGGGLVKPGGSLKLSCAASGFTFNAYAMSWVRQTPEKRLEWVASISTGGNTYCPDSVKDRFTVSRDNVRNILYLQMSSLRSEDTAMYYCTRGYQRFSGFAYWGQGTLVTVS
VL: DVVMTQTPLSPPVSLGYQASISCRSSQSLVHSNGNTYLNWYLQKPGQSPKLLIYKVSNRLSGVPDRFSGSGSGTDFTLKISRVETEDLGVYFCSQSTHVPYTFGGGTKLEIK
In the case of B3, the “binding to C5aR1 mutant” value [2] is reported as “does not abolish binding”, the “inhibition of cell chemotaxis” value (C5aR1 (C5aR1-U937 cells)) is reported as “strongest effects” and the “inhibition of chemotaxis as single agents” value (C5aR1 (C5aR1-U937 cells)) is reported as “inhibited chemotaxis as single agents in a dose-dependent manner”.
